The values that follow come from US20210179728A1.

pKd: −log10 of the molar value. “And” between values parts separate entries of the source, which are not always exact repeats. Identical values can stand only once.

The target of assay [1] is SIRPg on human CD3+ T cells (human) (UniProt Q9P1W8). Kind of assay: flow cytometry on peripheral human CD3+ T cells; Exp 1 HV1 [B, table B]. For orientation: A flow cytometer gives signals particle by particle.
Assay [2] shares this target. Kind of assay: flow cytometry on peripheral human CD3+ T cells; Exp 1 HV2 [B, table B].
The target in assay [3] is SIRPa on human monocytes (human) (UniProt P78324). Nature of the assay: flow cytometry on human monocytes v1/v1, PE anti-human Fc; MFI [B, panel B table].
For assay [4] the target is unchanged. Nature of the assay: flow cytometry on human monocytes v1/v1, PE anti-human Fc; percent of stained monocytes [B, panel A table].
For assay [5], the target named is recombinant hSIRPa (Sino Biologicals, reference 11612-H08H) (human) (UniProt P78324). Nature of the assay: SPR (Biacore); SIRPa-His immobilized on CM5 chip, antibody injected.
Assay [6] has as its target recombinant hSIRPa (Sino Biologicals, reference 10975-H08H) (human) (UniProt P78324). Kind of assay: ELISA on immobilized recombinant hSIRPa, anti-mouse Fc detection; given as ED50. On the technique in general: In an ELISA, binding on a coated surface is turned into a signal by an enzyme label.
Assay [7] deals with CD47 on human T cells, red blood cells and platelets (human) (UniProt Q08722). Nature of the assay: flow cytometry on peripheral human CD3+ T cells; Exp 1 HV1 [B, table B].
Assay [8] shares this target. Nature of the assay: flow cytometry on peripheral human CD3+ T cells; Exp 1 HV2 [B, table B].

SIRPg on human CD3+ T cells (human), sequence (Q9P1W8 29-387): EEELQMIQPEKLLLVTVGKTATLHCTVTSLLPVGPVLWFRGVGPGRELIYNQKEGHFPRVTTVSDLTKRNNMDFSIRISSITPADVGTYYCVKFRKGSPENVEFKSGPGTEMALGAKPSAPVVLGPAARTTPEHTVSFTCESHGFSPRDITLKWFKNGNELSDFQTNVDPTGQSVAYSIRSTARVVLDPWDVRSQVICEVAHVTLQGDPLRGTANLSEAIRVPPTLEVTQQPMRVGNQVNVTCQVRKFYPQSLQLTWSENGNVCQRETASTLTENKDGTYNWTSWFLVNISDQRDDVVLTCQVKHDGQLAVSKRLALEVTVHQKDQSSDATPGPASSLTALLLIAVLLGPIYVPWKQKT

For Ctrl Ab II (antibody), the figures for the % of positive T-cells in assay [1] and in assay [2] were 0.45% and 1.12%, respectively.

As to Kwar23 (antibody), the figures for the EC50 in assay [3] and in assay [4] were 0.378 µg/mL and 0.26 µg/mL, respectively.

In the case of LSB2.20 (antibody), the % of positive T-cells in assay [1] turned out to be 91.4%; in assay [2], 98.4%.

Mouse isotype Ctrl (antibody) showed a % of positive T-cells in assay [2] of 0.016%.

SE5A5 (antibody): in assay [5], the pKd was 7.41, the koff is 0.000949 s⁻¹ and the kon is 24500 M⁻¹ s⁻¹. Moreover, the % of positive T-cells in assay [1] stood at 3.72%. The % of positive T-cells in assay [2] was found to be 7.69%. In addition, the EC50 in assay [6] was 0.16 nM and 0.024 µg/mL.

For SE7C2 (antibody), in assay [5], the pKd is 5.78, the koff amounted to 0.01 s⁻¹ and the association rate constant (kon) amounted to 5980 M⁻¹ s⁻¹.

Turning to SIRPa-fc (Fc fusion), the % of positive T-cells in assay [7] was determined as 72.2%; in assay [8], 80.1%.

For orientation: EC50 means the concentration giving half of the maximal effect. For orientation: pKd means the Kd on a negative log10 scale, so that one unit is a factor of ten. As usually defined, the koff is the rate constant with which the complex falls apart. A word on the kon: it is the second-order rate constant of association.
